Laboratory results as given in FireProtDB (doi:10.1006/jmbi.1995.0325).

B1: Subtilisin inhibitor, P01006 (parent)
chain: MRNTGAGPSPSVSRPPPSAAPLSGAALAAPGDAPSALYAPSALVLTVGKGVSATTAAPERAVTLTCAPGPSGTHPAAGSACADLAAVGGDLNALTRGEDVMCPMVYDPVLLTVDGVWQGKRVSYERVFSNECEMNAHGSSVFAF

Variants of: B1
Settings: Streptomyces albogriseolus, Thermal, DSC, reversible: yes, structure 3SSI, whole UniProt chain shown; for ddG of mutation (higher = less stable) / unfolding free energy: 53.36 °C

| Variant | ddG of mutation (higher = less stable) (pH 3.2, glycine 25 mM) | unfolding free energy (pH 3.2, glycine 25 mM) | ddG of mutation (higher = less stable) (pH 7, phosphate 25 mM) | unfolding free energy (pH 7, phosphate 25 mM) | Tm (pH 7, phosphate 25 mM) | change of melting temperature, mutant - wild type (higher = more stable) (pH 7, phosphate 25 mM) | unfolding enthalpy (calorimetric) (pH 7, phosphate 25 mM) | Tm (pH 9.5, glycine 25 mM) | change of melting temperature, mutant - wild type (higher = more stable) (pH 9.5, glycine 25 mM) | unfolding enthalpy (calorimetric) (pH 9.5, glycine 25 mM) | Tm (pH 3.2, glycine 25 mM) | change of melting temperature, mutant - wild type (higher = more stable) (pH 3.2, glycine 25 mM) | unfolding enthalpy (calorimetric) (pH 3.2, glycine 25 mM) | ddG of mutation (higher = less stable) (pH 9.5, glycine 25 mM) | unfolding free energy (pH 9.5, glycine 25 mM) |
| --- | --- | --- | --- | --- | --- | --- | --- | --- | --- | --- | --- | --- | --- | --- | --- |
| M104I | 0.73 kcal/mol | 4.82 kcal/mol | 0.94 kcal/mol | 5.09 kcal/mol | 80.4 °C | -1.78 °C | 193 kcal/mol | 78.3 °C | -2.42 °C | 189 kcal/mol | – | – | – | – | – |
| M104D | – | – | -1.6 kcal/mol | 7.63 kcal/mol | 85.3 °C | 3.08 °C | 182 kcal/mol | 83.3 °C | 2.59 °C | 177 kcal/mol | 56.8 °C | 3.46 °C | 98.7 kcal/mol | -1.25 kcal/mol | 7.29 kcal/mol |
| M104A | -0.54 kcal/mol | 6.09 kcal/mol | -0.55 kcal/mol | 6.58 kcal/mol | 83.4 °C | 1.16 °C | 183 kcal/mol | 80.9 °C | 0.18 °C | 178 kcal/mol | 55 °C | 1.66 °C | 101 kcal/mol | -0.13 kcal/mol | 6.17 kcal/mol |
| M104K | – | – | -0.35 kcal/mol | 6.38 kcal/mol | 82.9 °C | 0.65 °C | 192 kcal/mol | 80.9 °C | 0.17 °C | 188 kcal/mol | 57.1 °C | 3.71 °C | 107 kcal/mol | -0.05 kcal/mol | 6.09 kcal/mol |
| M104L | 0.13 kcal/mol | 5.42 kcal/mol | 0.25 kcal/mol | 5.78 kcal/mol | 81.8 °C | -0.46 °C | 193 kcal/mol | – | – | – | 52.9 °C | -0.43 °C | 108 kcal/mol | 0.55 kcal/mol | 5.49 kcal/mol |
| M104V | 0.46 kcal/mol | 5.09 kcal/mol | 0.66 kcal/mol | 5.37 kcal/mol | 81 °C | -1.17 °C | 193 kcal/mol | 79 °C | -1.75 °C | 189 kcal/mol | – | – | – | 0.95 kcal/mol | 5.09 kcal/mol |
| M104E | -0.35 kcal/mol | 5.9 kcal/mol | -1.05 kcal/mol | 7.08 kcal/mol | 84.2 °C | 1.99 °C | 185 kcal/mol | – | – | – | 54.3 °C | 0.98 °C | 103 kcal/mol | – | – |
| M104G | – | – | 0.06 kcal/mol | 5.97 kcal/mol | – | – | – | 79.8 °C | -0.87 °C | 186 kcal/mol | 52.7 °C | -0.7 °C | 106 kcal/mol | 0.49 kcal/mol | 5.55 kcal/mol |
